Test results as given in patent US20240254205A1 (UNIVERSITY OF ROCHESTER, published 2024).
Like-named read-outs stand apart in the source and are kept apart here.

B1: 1092E10 (antibody, V domains shown)
VH: EVQLVESGGGSVKPGGSLRLSCAASGFTFTNSWMSWVRQAPGKGLEWVGRIKSKSDGGTTDYAAPVKGRFSISRDDSKSTLFLQMNSLKTEDTAVYYCSAAPFTESNGYKSWDYLYGMDVWGQGTTVTVSS
VL: SYELTQPPSVSVSPGQTATITCSGDKLGDKFASWYQQQPGQSPVLVIYQHTKRPSGIPERFSGSISGSTATLTISGTQAVDEADYYCQAWDSNSYVFGAGTKVTVL
notes: also called 1092E01
B2: 1122C6 (antibody, V domains shown)
VH: QVQLQESGPGLVKPSETLSLTCTVSGGSISSYYWSWIRQPPGKAVEWIGYIFDGGSTDYNPSLKSRVAMSVDASENQFSLKLASVTAADTAVYYCARYRVSGNYYDTPWFDPWGQGLLVTVSS
VL: SYELTQPPSLSASPGQTARITCSGDALPKQDVYWYQQKPGQAPLLVIYKDTERPSGIPERFSGSRSGTTVTLIISGVQAEDEADYYCQSAASSYGYVVFGGGTKLTVL
B3: KPF2/1092D4 (antibody, V domains shown)
VH: EVQLLESGGQLVQPGGSLRLSCAVSGFTFSRYAMYWVRQAPGKGLEWVSIISGDGGVTFYADSVKGRFTISRDNSKNTLFLQMNSLRADDTAVYYCAKDNQDLDLWSGSYKGTFDDWGQGTLVTVSS
VL: NFMLTQPHSVSGSPGKTVSISCTRSSGIIASNHVQWYQQRPGSAPTTVIFEDNQRPSGVPDRFSGSIDSSSNSASLTISGLKTEDEADYYCQSYDSSRYWVFGGGTKLTVL
B4: 1122C7 (antibody, V domains shown)
VH: EVQLLESGGQLVQPGGSLRLSCAVSGFTFSSYAMYWVRQSPGKGLEWVSIISGDGGVTFYADSVKGRFTISRDNSKNTLYLQMNSLRAEDTAVYYCAKDKQDLDLWSGSYKGTFDEWGQGTLVTVSS
VL: NFMLTQPHSVSGSPGKTVSISCTRSSGIIASNYVQWYQQRPGSAPTTVIFEDNQRPSGVPDRFSGSIDSSSNSASLTISGLKTEDEADYYCQSYDSSRYWVFGGGTKLTVL
B5: 1086C12 (antibody, V domains shown)
VH: VQLVESGGGVVQPGRSLRLSCVASGFSLSTYGMLWVRQAPGKGLVWVALISYEEGSNKKYADSVKGRFTISRDNSRNTLYLQMSSLTSDDTGVYYCARDAGCDSVGYYPGRLWGQGTLVTVSS
VL: QSVLTQPPSASGTPGQTVTISCSGTSSNIGSNFVYWYQQLPGTAPKLLIFRNNQRPSGVPDRFSGSKSGTSASLAVSGLRSEDEAEYYCAAWDDSLSGHLVFGGGTKLTVL

Experiments:
[1] = molecular target: T1, recombinant IBV NA protein B/Hong Kong/330/2001 (Victoria lineage) (influenza B virus B/Hong Kong/330/2001)
[2] = molecular target: T2, NA of B/Lee/1940 on infected MDCK cells (influenza B virus B/Lee/1940, UniProt P03474 1-466); test: immunofluorescence on infected MDCK cells, hMAb at 1 µg/ml
T2 construct: whole, on cells

[3] = molecular target: T1, recombinant IBV NA protein B/Hong …; test: avidity ELISA with urea, hMAb at 1 µg/ml
[4] = molecular target: T2, NA of B/Lee/1940 on infected MDCK cells; test: immunofluorescence (IFA) on infected MDCK cells
[5] = molecular target: T1, recombinant IBV NA protein B/Hong …; remark: listed apart in the source
[6] = molecular target: T1, recombinant IBV NA protein B/Hong …; test: surface plasmon resonance, antibody on the chip, NA flowed over

| Binder | EC50 (read off the curve) [1] [µg/mL] | binding result [2] | binding activity maintained in 8 M urea [3] [%] | binding result [4] | Kd [5] [nM] | koff [5] [s⁻¹] | kon [5] [M⁻¹ s⁻¹] | Kd [6] [nM] |
| --- | --- | --- | --- | --- | --- | --- | --- | --- |
| B1 | ~0.05 | binds | > 75 |  |  |  |  |  |
| B2 |  |  |  | no binding (tested: 1 µg/ml) |  |  |  |  |
| B3 | ~0.05 | binds | > 75 |  | 0.185 | 4.86e-05 | 264000 | 0.1 |
| B4 |  | binds | > 75 |  |  |  |  |  |
| B5 | ~0.05 | binds | > 75 |  |  |  |  |  |
